Experimental data as given in patent publication US6525022B1, “Receptor specific atrial natriuretic peptides” (Genentech, Inc., priority 1993, dated 2003).
Blank lines part the entries; values can stand above or below the molecule they belong to. Bridges are numbered along the chain shown (N, C = ends). Where no end group is shown, it is not given here.

Legend:
[1] = target: T1, human natriuretic peptide receptor-A expressed in 293 cells (Homo sapiens, UniProt P16066); assay: cGMP production in 293 cells expressing hNPR-A; format: cell-based
T1 construct: expressed in transfected cells
T1 sequence (P16066 33-1061): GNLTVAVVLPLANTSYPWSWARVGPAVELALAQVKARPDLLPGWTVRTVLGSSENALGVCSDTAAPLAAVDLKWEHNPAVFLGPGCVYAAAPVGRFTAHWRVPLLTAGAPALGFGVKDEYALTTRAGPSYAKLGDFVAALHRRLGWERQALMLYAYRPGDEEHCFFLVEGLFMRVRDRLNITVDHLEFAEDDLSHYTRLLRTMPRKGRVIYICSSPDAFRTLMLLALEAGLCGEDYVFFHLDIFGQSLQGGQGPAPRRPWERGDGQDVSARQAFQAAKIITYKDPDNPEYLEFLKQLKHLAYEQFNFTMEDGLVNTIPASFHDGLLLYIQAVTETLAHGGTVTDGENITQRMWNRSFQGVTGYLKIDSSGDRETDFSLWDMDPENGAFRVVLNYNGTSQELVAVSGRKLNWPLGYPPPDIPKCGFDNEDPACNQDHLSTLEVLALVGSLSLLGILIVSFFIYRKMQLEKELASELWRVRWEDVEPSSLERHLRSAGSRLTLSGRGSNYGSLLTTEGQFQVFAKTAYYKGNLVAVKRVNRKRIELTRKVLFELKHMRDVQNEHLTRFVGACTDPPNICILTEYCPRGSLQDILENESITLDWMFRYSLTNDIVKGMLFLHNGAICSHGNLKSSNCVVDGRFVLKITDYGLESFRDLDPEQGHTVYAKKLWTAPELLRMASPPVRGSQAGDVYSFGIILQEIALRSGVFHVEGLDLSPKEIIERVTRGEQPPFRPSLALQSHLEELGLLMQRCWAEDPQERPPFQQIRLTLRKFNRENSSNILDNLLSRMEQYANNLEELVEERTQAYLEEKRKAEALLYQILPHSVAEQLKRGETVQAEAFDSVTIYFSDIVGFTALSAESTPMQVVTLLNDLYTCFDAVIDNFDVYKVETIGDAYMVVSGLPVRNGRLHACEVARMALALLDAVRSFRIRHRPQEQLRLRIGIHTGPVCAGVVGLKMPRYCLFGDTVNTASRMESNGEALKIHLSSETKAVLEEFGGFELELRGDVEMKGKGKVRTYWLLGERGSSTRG
Description: Stable 293 cell lines were maintained in glycine free F-12/Dulbecco's minimal essential medium (50/50, v/v) with 10% dialyzed fetal calf serum, 10 mM Hepes, […] of G418 (Geneticin, GIBCO/BRL), pH 7.2, in a humidified incubator at 37° C. with 7% CO2, 93% air. Cells were passaged using 136.8 mM NaCL, 2.6 mM KCl, 7.9 mM Na2HPO4, 1.4 mM KH2PO4, pH 7.2 (PBS) with 0.5 mM EDTA. For concentration-response experiments log phase cultures of 293 cell lines were passaged to 12 well plates at a density of 2.5×10^5 cells/well. After 48 hours cultures were approximately 50% confluent, and were used for stimulation of cGMP production. Peptide treatments were carried out essentially as described by Lowe and Fendly (1992). Briefly, dried peptide aliquots were resuspended in 0.1% (v/v) acetic acid to a stock concentration of 50 μM, and diluted to 1 μM in F-12/Dulbecco's minimal essential medium (50/50, v/v) with 25 mM Hepes, 0.1% (w/v) bovine serum albumin, 0.1 mM isobutylmethylxanthine at pH 7.2 (stimulation medium). Five-fold serial dilutions were prepared in stimulation medium using polypropylene tubes, then prewarmed to 37° C. before use. Cell culture medium was aspirated prior to adding 0.5 ml of stimulation medium plus peptides to monolayer cultures for 10 minutes at 37° C. Reactions were stopped by addition of 0.5 ml of ice cold 12% trichloroacetic acid to give a final volume of 1 ml. Culture plates were frozen on dry ice and stored at −20° C. prior to assay. For cGMP measurements samples were thawed at room temperature, and processed as described by Koller et al., Science 252:120-123 (1991), for cGMP radioimmunoassay (Biomedical Technologies, Inc). All stimulations were performed in triplicate, and samples were measured in duplicate for cGMP by radioimmumoassay. Predicted peptide concentrations were corrected based on quantitative amino acid analysis of duplicate samples from the same set of peptide aliquots used for the stimulation experiments.
Data analysis. The competition binding curves and cGMP production dose responses were analyzed by the four-parameter logistic equation with the KaleidaGraph™ program (Synergy Software, PA) to obtain estimates of the IC50 or EC50 values. The non linear least-squares curve fitting program SCATPLOT was used to analyze the competition binding curves according to a one-site or two-site binding model for competitor. A two-site binding model is reported when the fit to the data was statistically better (p<0.05) than a one-site fit.

hNPR-C = target: T2, hNPR-C (Homo sapiens, UniProt P17342); assay: Competitive binding to membranes from cells expressing human NPR-C; design: expressed in transfected cells; conditions: FIG. 19, in comparison to rat ANP
T2 sequence (P17342 27-541): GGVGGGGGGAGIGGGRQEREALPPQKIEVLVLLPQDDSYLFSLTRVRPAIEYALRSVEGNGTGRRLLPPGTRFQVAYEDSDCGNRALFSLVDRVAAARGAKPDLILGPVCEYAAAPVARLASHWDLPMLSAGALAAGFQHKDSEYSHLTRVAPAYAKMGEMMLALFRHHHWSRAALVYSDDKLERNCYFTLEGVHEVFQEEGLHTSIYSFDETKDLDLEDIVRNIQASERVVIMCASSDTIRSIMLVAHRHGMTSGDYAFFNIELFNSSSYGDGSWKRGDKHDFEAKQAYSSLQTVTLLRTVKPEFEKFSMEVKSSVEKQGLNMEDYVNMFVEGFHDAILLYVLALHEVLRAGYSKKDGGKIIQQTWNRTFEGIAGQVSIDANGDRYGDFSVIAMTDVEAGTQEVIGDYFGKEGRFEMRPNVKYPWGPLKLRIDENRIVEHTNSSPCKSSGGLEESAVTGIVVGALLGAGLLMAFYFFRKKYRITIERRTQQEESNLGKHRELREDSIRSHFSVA
Description: Membrane preparation. Stable cell lines expressing human NPR-A (Lowe and Fendly, J. Biol. Chem. 267:21691-21697 (1992)) or human NPR-C (Cunningham et al., EMBO J 13, 2508-2515 (1994)) were removed from cell culture dishes with 0.5 mM EDTA in phosphate buffered saline (PBS), placed in ice cold PBS and centrifuged at 228 g for 10 min at 4° C. The cell pellets were resuspended in ice-cold homogenization buffer (50 mM HEPES, 1 mM EDTA, 1 mM DTT, 0.25 M sucrose, 0.7 mg/mL pepstatin A, 0.5 mg/mL leupeptin and 1 mM PMSF, pH 7.4). The cells were then homogenized using a Brinkman polytron at setting 5 for 30 sec. The homogenate was centrifuged at 400×g for 10 min at 4° C. The supernatant was collected and centrifuged at 100,000×g for 30 min at 4° C. […] Protein concentrations was determined using the Biorad protein assay with IgG as a standard.
Membrane competition binding assays. […] The plates were washed six times with PBS, then air dried prior to adding scintillant and counted in a Packard Topcount scintillation counter for 1 min/well. Binding was measured in duplicate for each concentration of competitor.
Data analysis. The competition binding curves and cGMP production dose responses were analyzed by the four-parameter logistic equation with the KaleidaGraph™ program (Synergy Software, PA) to obtain estimates of the IC50 or EC50 values. […]

[2] = target: human neutral endopeptidase 24.11 (human) (UniProt P08473); assay: cell-based or functional assay
human neutral endopeptidase 24.11 (human), sequence (P08473 2-750 limits assumed): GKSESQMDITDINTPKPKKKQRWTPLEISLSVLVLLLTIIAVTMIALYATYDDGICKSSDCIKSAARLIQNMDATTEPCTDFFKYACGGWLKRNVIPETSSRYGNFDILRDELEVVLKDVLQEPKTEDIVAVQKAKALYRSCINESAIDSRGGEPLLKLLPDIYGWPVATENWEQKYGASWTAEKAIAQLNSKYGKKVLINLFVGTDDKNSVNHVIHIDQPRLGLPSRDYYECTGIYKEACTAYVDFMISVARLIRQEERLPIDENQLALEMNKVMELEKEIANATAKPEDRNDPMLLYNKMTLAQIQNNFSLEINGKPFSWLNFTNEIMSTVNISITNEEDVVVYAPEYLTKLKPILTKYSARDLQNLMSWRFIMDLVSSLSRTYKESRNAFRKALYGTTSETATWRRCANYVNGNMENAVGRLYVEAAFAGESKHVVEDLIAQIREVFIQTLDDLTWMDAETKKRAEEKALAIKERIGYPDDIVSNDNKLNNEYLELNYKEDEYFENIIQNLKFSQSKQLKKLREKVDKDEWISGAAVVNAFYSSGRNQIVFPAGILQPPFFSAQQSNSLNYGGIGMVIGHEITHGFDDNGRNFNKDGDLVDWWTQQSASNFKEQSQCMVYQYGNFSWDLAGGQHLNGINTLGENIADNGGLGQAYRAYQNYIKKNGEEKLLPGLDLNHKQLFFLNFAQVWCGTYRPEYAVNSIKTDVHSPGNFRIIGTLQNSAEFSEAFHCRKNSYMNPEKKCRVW

[3] = target: T3, human natriuretic peptide clearance receptor-C (human) (UniProt P17342); assay: competition binding, Table I; tracer and receptor format not given
T3 sequence (looked up): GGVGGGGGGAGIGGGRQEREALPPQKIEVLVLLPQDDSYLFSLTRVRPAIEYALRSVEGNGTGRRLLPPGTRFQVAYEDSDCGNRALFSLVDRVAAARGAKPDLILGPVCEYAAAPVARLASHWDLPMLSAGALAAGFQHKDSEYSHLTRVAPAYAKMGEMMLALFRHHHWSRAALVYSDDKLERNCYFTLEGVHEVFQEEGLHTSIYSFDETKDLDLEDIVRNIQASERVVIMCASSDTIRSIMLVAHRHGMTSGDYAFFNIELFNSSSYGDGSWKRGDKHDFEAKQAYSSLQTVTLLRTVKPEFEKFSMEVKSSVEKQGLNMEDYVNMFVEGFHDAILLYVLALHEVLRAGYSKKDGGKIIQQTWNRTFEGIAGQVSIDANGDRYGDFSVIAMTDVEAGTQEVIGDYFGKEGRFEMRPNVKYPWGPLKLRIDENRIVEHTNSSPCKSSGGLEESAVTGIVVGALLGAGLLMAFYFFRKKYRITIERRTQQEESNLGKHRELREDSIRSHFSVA

[4] = target: human natriuretic peptide receptor-A (human) (UniProt P16066); assay: as above
[5] = target: human NEP (hNEP), endopeptidase 24.11 (Homo sapiens, UniProt P08473); assay: in vitro; conditions: Half-Life (min.)
human NEP (hNEP), endopeptidase 24.11, sequence (P08473 whole entry): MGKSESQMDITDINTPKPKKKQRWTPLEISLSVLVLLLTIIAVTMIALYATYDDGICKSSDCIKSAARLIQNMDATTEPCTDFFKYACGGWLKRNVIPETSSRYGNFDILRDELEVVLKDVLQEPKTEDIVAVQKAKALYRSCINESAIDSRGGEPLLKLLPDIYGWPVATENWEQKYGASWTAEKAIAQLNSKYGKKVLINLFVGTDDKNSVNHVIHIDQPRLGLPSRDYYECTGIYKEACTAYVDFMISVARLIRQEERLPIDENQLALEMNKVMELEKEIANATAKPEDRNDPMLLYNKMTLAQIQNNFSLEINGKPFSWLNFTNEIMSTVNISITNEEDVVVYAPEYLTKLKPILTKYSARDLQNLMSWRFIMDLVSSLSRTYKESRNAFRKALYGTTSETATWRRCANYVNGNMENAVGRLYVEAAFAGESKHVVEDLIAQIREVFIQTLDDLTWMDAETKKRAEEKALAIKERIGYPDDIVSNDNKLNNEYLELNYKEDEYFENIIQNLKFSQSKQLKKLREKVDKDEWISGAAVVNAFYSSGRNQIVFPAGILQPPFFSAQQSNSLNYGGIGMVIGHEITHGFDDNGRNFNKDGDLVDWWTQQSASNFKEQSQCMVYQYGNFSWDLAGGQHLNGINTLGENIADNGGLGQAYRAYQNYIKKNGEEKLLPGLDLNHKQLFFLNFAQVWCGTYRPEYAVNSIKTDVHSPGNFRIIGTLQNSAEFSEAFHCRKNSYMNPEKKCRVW
Description: The half-life of various ANF variants was measured according to the following procedure.
ANF Solution: An accurately weighed amount of ANF or variant thereof was diluted with HEPES buffer (5 ml of 1 M HEPES Buffer and 0.1 ml of Tween 20 diluted to a 100 ml volume with DI water) to make a 0.5 mg/ml solution.
hNEP/HEPES Solution: 7.5 μl of a 1 mg/ml solution of hNEP (see U.S. Pat. No. 4,960,700) is dissolved in 992.5 μl of HEPES buffer (as described above) and vortex mixed. The resulting mixture is stored in a silylated Eppendorf tube and periodically checked for activity against an ANF peptide standard.
Assay conditions: 150 μl of an ANF solution in the HEPES buffer is diluted with 820 μl HEPES buffer and vortex mixed (1 sec). Careful note of the time is taken as 30 μl of the hNEP/HEPES solution is added and the solution is vortex mixed for 1 sec. and analyzed by periodic removal of constant volume aliquots by the HPLC autosampler. A 2.5 cm×50 cm, C-18 reversed-phase column (15 micron, 300 Å]) was used and elution was achieved by using a shallow gradient of increasing acetonitrile. The elution conditions consisted of a 10% to 50% acetonitrile (containing 0.1% TFA) gradient at 0.5% min.^−1. The aqueous phase was 0.1% TFA in water. The peak area of the ANP peptide is recorded at these periodic intervals and a half-life is determined from these values.

Molecule: Ser-Leu-Arg-Arg-Ser-Ser-Cys-Phe-Gly-Gly-Arg-Ile-Asp-Arg-Ile-Arg-Glu-Ala-Ser-Gly-Leu-Gly-Cys-Asn-Ser-Phe-Arg-Tyr (SEQ ID NO: 24), Cys^7-Cys^23 disulfide (SLRRSSCFGGRIDRIREASGLGCNSFRY; disulfide 7-23) [ANF 99]
- Potency in cGMP production compared with rat ANP [1]: equipotent
- Stimulation of cGMP production (agonist efficacy) [1]: efficacious
- Binding to human NPR-C membranes, competition for 125I-rat ANP (hNPR-C): reduced affinity

Molecule: ANF 31 (peptide)
- Half-Life [2]: 2.97 h
- IC50 [3]: 3210 nM
- IC50 [4]: 0.052 nM

- half-life at 32 nM/ml [5]: 15.5 h
Molecule: CC[C@H](C)[C@@H]1NC(=O)[C@H](CCCNC(=N)N)NC(=O)[C@H](CC(=O)O)NC(=O)[C@H]([C@@H](C)CC)NC(=O)[C@H](CO)NC(=O)CNC(=O)[C@H]([C@@H](C)O)NC(=O)[C@H](Cc2ccccc2)N(C)C(=O)[C@@H](NC(=O)[C@H](CO)NC(=O)[C@H](CO)NC(=O)[C@H](CCCNC(=N)N)NC(=O)[C@H](CCCNC(=N)N)NC(=O)[C@H](CC(C)C)NC(=O)[C@@H](N)CO)CSSC[C@@H](C(=O)N[C@@H](CC(N)=O)C(=O)N[C@@H](CO)C(=O)N[C@@H](Cc2ccccc2)C(=O)N[C@@H](CCCNC(=N)N)C(=O)N[C@@H](Cc2ccc(O)cc2)C(=O)O)NC(=O)CNC(=O)[C@H](CC(C)C)NC(=O)CNC(=O)[C@H](CO)NC(=O)[C@H](CCC(N)=O)NC(=O)[C@H](C)NC(=O)[C@H](CCCNC(=N)N)NC1=O [ANF 83]
